Results taken from the supplement of paper PMC9170038.

Tested on: MS2 coat protein
Test: apparent KD of MS2 coat protein; designed switch direction (-1 OFF switch, 1 ON switch): -1; higher = weaker reporter binding
How it was run: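 The buffer was Tris-HCl pH 7.5 with KCl, MgCl2, BSA, DTT, tRNA and Tween-20. In it, SNAP-549-labelled MS2 coat protein was titrated in doubling steps from 0.7 or 1.5 nM to 3 µM over chip-bound RNA switches transcribed by stalled E. coli RNA polymerase on Illumina chips. Apparent KD is the per-design median over clusters of curve fits to normalised fluorescence.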

[1] = input ligand: microRNA oligo, concentration not stated
[2] = Eterna round: R95, input ligand: microRNA oligo, concentration not stated
[3] = Eterna round: R95, input ligand: FMN 200 uM
[4] = Eterna round: R95, input ligand: none

Sequence: AGGCGGAAAGUAAGGAUAUCUUGACCAAAGGGUUGAGAGAAGGUACAUGAGGAUCACCCAUGUGUUUACCGCCA [Shrinking Claw (Vienna2)] (Eterna round: R97, puzzle: Brourd's mod of Exclusion 4)
- apparent KD of MS2 coat protein (input ligand: FMN 200 uM): 12.4 nM
- apparent KD of MS2 coat protein (input ligand: none): 12.9 nM

Sequence: AGGGACGGCUGAGGAUAUAUGUAGAGUGAGAUAGUAGAAGGCAGACAUGAGGAUCACCCAUGUAUCGGUCCUCAUAUCUCGUAU [Default title] (Eterna round: R96, puzzle: Exclusion NG 1)
- apparent KD of MS2 coat protein (input ligand: FMN 200 uM): 14.3 nM
- apparent KD of MS2 coat protein [1]: 15.9 nM
- apparent KD of MS2 coat protein (input ligand: none): 17.7 nM

Sequence: AGGUAACAUGAGGAUCACCCAUGUCAGGAUAUCAUGAAGAUUAGAUUAGAGGAGAGGUUGAGAAGGGACUAUAU [Excluse me! 16 - Jieux - Exclusion 1] (puzzle: Exclusion 1)
- apparent KD of MS2 coat protein [2]: 45.4 nM

Sequence: AGGUCACAUGAGGAUCACCCAUGUCAGGAUAUCGUCACUGGAGCUUCGGCUCCAGUGACGAGAAGGGACAAUUA [E1/6-A1] (Eterna round: R97, puzzle: Exclusion 1)
- apparent KD of MS2 coat protein (input ligand: FMN 200 uM): 499 nM
- apparent KD of MS2 coat protein (input ligand: none): 80.5 nM

Sequence: AGGUGCUUCUGGAGACAUGAGGAUCACCCAUGUUGAGUUAGCGAGGAUAUCGGUAACCAUUGUUAUGAGAAGGCGCAAACCAGA [Ex NG3 #40] (Eterna round: R96, puzzle: Exclusion NG 3)
- apparent KD of MS2 coat protein (input ligand: FMN 200 uM): 22.9 nM
- apparent KD of MS2 coat protein [1]: 10.5 nM
- apparent KD of MS2 coat protein (input ligand: none): 27.8 nM

Sequence: AGGUGUAGAGGAUAUCUCUUCUCUCACAUGAGGAUCACCCAUGUCCUAAAGACCAAGGAGAGAGAAGGCUACACCA [Omei Ex5 D6] (Eterna round: R97, puzzle: Exclusion 5)
- apparent KD of MS2 coat protein (input ligand: FMN 200 uM): 42 nM
- apparent KD of MS2 coat protein (input ligand: none): 41.8 nM

Sequence: AGGUGUAGAGGAUAUCUCUUCUCUCACAUGAGGAUCACCCAUGUCCUGGGUACCUGGGAGAGAGAAGGCUACACCA [Omei Ex5 D12] (Eterna round: R97, puzzle: Exclusion 5)
- apparent KD of MS2 coat protein (input ligand: FMN 200 uM): 1060 nM
- apparent KD of MS2 coat protein (input ligand: none): 2460 nM

Sequence: AGGUGUAGGUAAGGAUAUAUCUAAAACCACAUGAGGAUCACCCAUGUAGCGGGUAUCUUCGUGAGAUAGAAGGUGCACGCCGAA [Atbiasori] (Eterna round: R96, puzzle: Exclusion NG 2)
- apparent KD of MS2 coat protein (input ligand: FMN 200 uM): 494 nM
- apparent KD of MS2 coat protein [1]: 269 nM
- apparent KD of MS2 coat protein (input ligand: none): 308 nM

Sequence: AGGUUGGCGUGAGGAUAUUGGAAAGGAAGUGUACAAGAAGGUACGGACCUAAAACAUGAGGAUCACCCAUGUGGUCCUUAUGCC [PowerStrip EXNG 1.26] (Eterna round: R96, puzzle: Exclusion NG 1)
- apparent KD of MS2 coat protein (input ligand: FMN 200 uM): 14 nM
- apparent KD of MS2 coat protein [1]: 11.2 nM
- apparent KD of MS2 coat protein (input ligand: none): 19.6 nM

Sequence: AGUAACCGUCACGAAAGUGAUGGUUACACAAGCAUAUGUACAUGAGGAUCACCCAUGUCCUCAAUUGCUCGUCUUAU [Sensor 3 - 54] (puzzle: Sensor v3, turn-off variant 2)
- apparent KD of MS2 coat protein [3]: 167 nM
- apparent KD of MS2 coat protein [2]: 250 nM
- apparent KD of MS2 coat protein [4]: 226 nM

Sequence: AGUAACCGUCACGAAAGUGAUGGUUACACAAGUAAUGAAACAUGAGGAUCACCCAUGUCCUCAUUUGCUCGUCUUAU [Sensor 3 - 39] (puzzle: Sensor v3, turn-off variant 2)
- apparent KD of MS2 coat protein [3]: 354 nM
- apparent KD of MS2 coat protein [2]: 362 nM
- apparent KD of MS2 coat protein [4]: 350 nM

Sequence: AGUAACCGUCACGAAAGUGAUGGUUACAUAAGCAUAUGUACAUGAGGAUCACCCAUGUCCUCAACUGCUCGUUUUAU [Sensor 3 - 56] (puzzle: Sensor v3, turn-off variant 2)
- apparent KD of MS2 coat protein [3]: 292 nM
- apparent KD of MS2 coat protein [2]: 612 nM
- apparent KD of MS2 coat protein [4]: 349 nM

Sequence: AGUAACUAUCACGAAAGUGAUAGUUACAAACAAGUGAAAACAUGAGGAUCACCCAUGUCCUCAUUUGCUCGUCUUAU [Sensor 3 - 7] (puzzle: Sensor v3, turn-off variant 2)
- apparent KD of MS2 coat protein [3]: 182 nM
- apparent KD of MS2 coat protein [2]: 884 nM
- apparent KD of MS2 coat protein [4]: 329 nM

Sequence: AGUAACUAUCACGAAAGUGAUAGUUACACAAGUGAAUAAACAUGAGGAUCACCCAUGUCCUCAUUUGCUCGUUUUAU [Sensor 3 - 17] (puzzle: Sensor v3, turn-off variant 2)
- apparent KD of MS2 coat protein [3]: 486 nM
- apparent KD of MS2 coat protein [2]: 553 nM
- apparent KD of MS2 coat protein [4]: 400 nM

Sequence: AGUAACUAUCACGAAAGUGAUAGUUACAGCAAGUGAUAAACAUGAGGAUCACCCAUGUCCUCAUUUGCUCGUCUUAU [Sensor 3 - 12] (Eterna round: R96, puzzle: Sensor v3, turn-off variant 2)
- apparent KD of MS2 coat protein (input ligand: FMN 200 uM): 15 nM
- apparent KD of MS2 coat protein [1]: 386 nM
- apparent KD of MS2 coat protein (input ligand: none): 17.2 nM

Sequence: AGUAACUAUCACGAAAGUGAUAGUUACAGCAAGUGAUAAACAUGAGGAUCACCCAUGUCCUCAUUUGCUCGUCUUAU [Sensor 3 - 12] (puzzle: Sensor v3, turn-off variant 2)
- apparent KD of MS2 coat protein [3]: 15.1 nM
- apparent KD of MS2 coat protein [2]: 739 nM
- apparent KD of MS2 coat protein [4]: 12.7 nM

Sequence: AGUAACUCAUGAGGAUAUCACAUGAGGAUCACCCAUGUAUAGCGCGCUAUGCUAGUCCUCGUAUAUGAGAAGGUAUGAUAAAUG [JL ViennaUCT Quve mod 3] (Eterna round: R96, puzzle: Exclusion NG 2)
- apparent KD of MS2 coat protein (input ligand: FMN 200 uM): 22 nM
- apparent KD of MS2 coat protein [1]: 15.7 nM
- apparent KD of MS2 coat protein (input ligand: none): 25.7 nM

Sequence: AGUACAUACACGAAAGUGUAUGUACAAUAAGCUUGUGGAACAUGAGGAUCACCCAUGUCCUCAUAAGCUCGUCUUAU [Mat - Sensor v3 - Turn-off var 2 - D30] (puzzle: Sensor v3, turn-off variant 2)
- apparent KD of MS2 coat protein [3]: 16.5 nM
- apparent KD of MS2 coat protein [2]: 71.4 nM
- apparent KD of MS2 coat protein [4]: 15.5 nM

Sequence: AGUACUAACACGAAAGUGUUAGUACAAUAAGCUAGUGGAACAUGAGGAUCACCCAUGUCCUCAUUAGCUCGUCUUGU [Mat - Sensor v3 - Turn-off var 2 - D39] (puzzle: Sensor v3, turn-off variant 2)
- apparent KD of MS2 coat protein [3]: 16.2 nM
- apparent KD of MS2 coat protein [2]: 34.8 nM
- apparent KD of MS2 coat protein [4]: 12.5 nM

Sequence: AGUACUAACACGAAAGUGUUAGUACAAUAAGCUUGUGAAACAUGAGGAUCACCCAUGUCCUCAUAAGCUCGUCUUAA [salish99_TOv2_r3_002] (puzzle: Sensor v3, turn-off variant 2)
- apparent KD of MS2 coat protein [3]: 12.9 nM
- apparent KD of MS2 coat protein [2]: 379 nM
- apparent KD of MS2 coat protein [4]: 10.8 nM

Sequence: AGUACUAACACGAAAGUGUUAGUACAAUAAGCUUGUGAAACAUGAGGAUCACCCAUGUCCUCAUAAGCUCGUCUUGU [salish99_TOv2_r3_009] (puzzle: Sensor v3, turn-off variant 2)
- apparent KD of MS2 coat protein [3]: 15.2 nM
- apparent KD of MS2 coat protein [2]: 353 nM
- apparent KD of MS2 coat protein [4]: 13.7 nM

Sequence: AGUACUAACACGAAAGUGUUAGUACAAUAAGCUUGUGGAACAUGAGGAUCACCCAUGUCCUCAUAAGCUCGUCUUAG [Mat - Sensor v3 - Turn-off var 2 - D26] (puzzle: Sensor v3, turn-off variant 2)
- apparent KD of MS2 coat protein [3]: 15.9 nM
- apparent KD of MS2 coat protein [2]: 62.3 nM
- apparent KD of MS2 coat protein [4]: 13 nM

Sequence: AGUACUAACACGAGAGUGUUAGUACAAUAAGCUUGUGAAACAUGAGGAUCACCCAUGUCCUCAUAAGCUCGUCUUAU [salish99_TOv2_r3_029] (Eterna round: R96, puzzle: Sensor v3, turn-off variant 2)
- apparent KD of MS2 coat protein (input ligand: FMN 200 uM): 15.3 nM
- apparent KD of MS2 coat protein [1]: 467 nM
- apparent KD of MS2 coat protein (input ligand: none): 18.1 nM

Sequence: AGUACUAACACGAGAGUGUUAGUACAAUAAGCUUGUGAAACAUGAGGAUCACCCAUGUCCUCAUAAGCUCGUCUUAU [salish99_TOv2_r3_029] (puzzle: Sensor v3, turn-off variant 2)
- apparent KD of MS2 coat protein [3]: 18.1 nM
- apparent KD of MS2 coat protein [2]: 949 nM
- apparent KD of MS2 coat protein [4]: 17.2 nM

Sequence: AGUACUAACACGCAUGUGUUAGUACAAUAAGCUUGUGAAACAUGAGGAUCACCCAUGUCCUCAUAAGCUCGUCUUAU [salish99_TOv2_r3_068] (Eterna round: R96, puzzle: Sensor v3, turn-off variant 2)
- apparent KD of MS2 coat protein (input ligand: FMN 200 uM): 14.8 nM
- apparent KD of MS2 coat protein [1]: 415 nM
- apparent KD of MS2 coat protein (input ligand: none): 17.2 nM

Sequence: AGUACUAACACGCAUGUGUUAGUACAAUAAGCUUGUGAAACAUGAGGAUCACCCAUGUCCUCAUAAGCUCGUCUUAU [salish99_TOv2_r3_068] (puzzle: Sensor v3, turn-off variant 2)
- apparent KD of MS2 coat protein [3]: 17.6 nM
- apparent KD of MS2 coat protein [2]: 411 nM
- apparent KD of MS2 coat protein [4]: 16.1 nM

Sequence: AGUACUAACACGUCAGUGUUAGUACAAUAAGCUUGUGAAACAUGAGGAUCACCCAUGUCCUCAUAAGCUCGUCUUAU [salish99_TOv2_r3_062] (puzzle: Sensor v3, turn-off variant 2)
- apparent KD of MS2 coat protein [3]: 17.3 nM
- apparent KD of MS2 coat protein [2]: 602 nM
- apparent KD of MS2 coat protein [4]: 16.1 nM

Sequence: AGUACUAUCACGAAAGUGAUAGUACAAAAUAGCAAGUGAACAUGAGGAUCACCCAUGUCCUCAUUUGCUCGUCUUAU [Sensor 3 - 19] (puzzle: Sensor v3, turn-off variant 2)
- apparent KD of MS2 coat protein [3]: 15.1 nM
- apparent KD of MS2 coat protein [2]: 426 nM
- apparent KD of MS2 coat protein [4]: 14.2 nM

Sequence: AGUACUGACACGUUGGUGUUAGUACAAUAAGCUUGUGACACAUGAGGAUCACCCAUGUCCUCAUAAGCUCGUCUUAU [salish99_TOv2_r2_094] (Eterna round: R96, puzzle: Sensor v3, turn-off variant 2)
- apparent KD of MS2 coat protein (input ligand: FMN 200 uM): 22.9 nM
- apparent KD of MS2 coat protein [1]: 468 nM
- apparent KD of MS2 coat protein (input ligand: none): 25.4 nM

Sequence: AGUACUGACACGUUGGUGUUAGUACAAUAAGCUUGUGACACAUGAGGAUCACCCAUGUCCUCAUAAGCUCGUCUUAU [salish99_TOv2_r2_094] (puzzle: Sensor v3, turn-off variant 2)
- apparent KD of MS2 coat protein [3]: 22 nM
- apparent KD of MS2 coat protein [2]: 1080 nM
- apparent KD of MS2 coat protein [4]: 20.7 nM

Sequence: AGUAGAUCUACGCUUGCGUGGAUCUGCAAUGCAAGUGUUACAUGAGGAUCACCCAUGUCCUCAUUUGCUCGUCUUAG [JL turnoff v2 99.05] (puzzle: Sensor v3, turn-off variant 2)
- apparent KD of MS2 coat protein [3]: 41.4 nM
- apparent KD of MS2 coat protein [2]: 108 nM
- apparent KD of MS2 coat protein [4]: 45.4 nM
